Data from patent US6534035B1, “Methods of inhibiting clot formation” (President and Fellows of Harvard College, priority 1998, dated 2003).
Several values for one entry are separate records, joined by “and”; a condition that tells them apart may be missing. Identical values can stand only once. Each block holds one molecule with its values, some of them ahead of it.

How the values were obtained:
FXIIIa [1] = target: T1, FXIIIa (Homo sapiens, UniProt P00488); assay: Crosslinking of α2AP1-24 and variant peptides to fibrin clots; type: biochemical; conditions: 0.5 mM of each peptide clotted with human fibrinogen; compared to wild type α2AP1-24
T1 construct: purchased American Diagnostica
T1 sequence (P00488 39-732 limits assumed): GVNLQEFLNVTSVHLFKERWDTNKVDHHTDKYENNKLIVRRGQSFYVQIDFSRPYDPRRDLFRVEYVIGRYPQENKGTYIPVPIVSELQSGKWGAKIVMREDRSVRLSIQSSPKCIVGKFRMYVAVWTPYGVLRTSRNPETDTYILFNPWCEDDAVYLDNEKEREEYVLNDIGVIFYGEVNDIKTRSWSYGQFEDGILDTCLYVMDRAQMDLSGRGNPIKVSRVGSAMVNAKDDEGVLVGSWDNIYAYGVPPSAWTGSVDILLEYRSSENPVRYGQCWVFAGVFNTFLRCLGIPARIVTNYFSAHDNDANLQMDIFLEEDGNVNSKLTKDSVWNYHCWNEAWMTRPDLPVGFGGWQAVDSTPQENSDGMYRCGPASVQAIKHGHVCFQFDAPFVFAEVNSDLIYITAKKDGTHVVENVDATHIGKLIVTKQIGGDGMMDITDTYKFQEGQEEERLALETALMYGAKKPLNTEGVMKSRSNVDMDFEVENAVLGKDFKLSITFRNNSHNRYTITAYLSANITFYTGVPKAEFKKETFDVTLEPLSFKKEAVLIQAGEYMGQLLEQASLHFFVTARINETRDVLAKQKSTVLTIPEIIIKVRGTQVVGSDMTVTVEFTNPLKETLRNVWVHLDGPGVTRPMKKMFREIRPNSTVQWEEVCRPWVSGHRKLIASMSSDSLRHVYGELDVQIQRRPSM
Procedure: A 0.5 mM concentration of each peptide was clotted with human fibrinogen. After electrophoresis of the solubilized, reduced clots on 7.5% SDS-PAGE gels and transfer to PVDF membranes, the extent of crosslinking of each peptide was determined by incubating the membranes with a polyclonal antibody directed against the amino-terminus of α2AP, followed by incubation in ^125I-protein A, and exposure in a phosphorimager. Each bar reflects phosphorimage quantification of the fibrin crosslinking α2AP1-24 and the variant peptides. The mean±SD pixel volume of the quantified blots are shown.
(§1) Experiments were performed to determine how long FXIIIa in clots could crosslink various substrates such as human ^125I -α2AP, α2AP13-24 (SEQ ID NO:2), and 5-(biotinamido)pentylamine, into fibrin. In a typical experiment, clots were prepared (50 μl final volume) in duplicate by combining fibrinogen (2 mg/ml final), CaCl2 (2 mM final), buffer (Tris-buffered saline pH 7.4) and thrombin (1 U/ml) and incubating at 37° C. Synchronous with the addition of thrombin, or up to 240 minutes afterwards, the FXIIIa substrates 5-(biotinamido)pentylamine (0.5 mM final), ^125I -α2AP (70 μg/ml final), and α2AP13-24 (0 to 1 mM final) were mixed and added to the clot. In one set of control samples, FXIIIa was inhibited with iodoacetamide (10 mg/ml) prior to the addition of substrate; to another set, no substrate was added. After 2 hours of incubation at 37° C., iodoacetamide (10 mg/ml) was added to stop the reaction. The tubes were then centrifuged at 14,000 rpm for 2 minutes, washed and compressed in 1 ml saline to remove unbound proteins, and centrifuged again at 14,000 rpm for 2 minutes. After removal of the supernatant, the clots were solubilized in 100 μL of 9M urea, pH 9.0 at 37° C. for 60 minutes. Then 100 μl of SDS reducing sample buffer was added and the clots were placed at 85° C. for 30 minutes until fully solubilized. The samples were examined by SDS-PAGE. Crosslinked ^125I-α2AP was detected and quantitated by phosphorimaging. Samples containing crosslinked α2AP13-24 and pentylamine substrates were electroblotted to PVDF membranes and detected by ^125I-streptavidin followed by phosphorimaging or by streptavidin-peroxidase followed by the developing agents 5-bromo-4-chloro-3-indolyl phosphate-nitro blue tetrazolium using methods known in the art. In experiments examining the effect of specific amino acid residues on the crosslinking of the α2AP13-24 peptide (SEQ ID NO:2) to fibrin, crosslinking was detected by immunoblotting with an anti-peptide antibody directed against this epitope followed by ^125I-protein A and phosphorimaging. In some experiments, clots were formed by mixing 25 μl pooled human fresh frozen plasma with 25 μl 30 mM CaCl2 instead of using human fibrinogen.
Although FXIIIa can crosslink a number of lysine analogs to glutamine sites in macromolecules such as fibrin, its specificity for crosslinking glutamine-containing substrates (acyl donors) such as α2AP to fibrin has not been defined. To examine specificity, a wild-type α2AP fragment spanning residues 1-24 (MEPLGWQLTSGPNQEQVSPLTLLK; SEQ ID NO:16) and a panel of α2AP variant peptides (corresponding to residues 1-24 with the exception that one residue is altered from the wild type sequence; SEQ ID NO:11, 12, 13, 14, 15) was created with mutations of residues that represented other potential crosslinking sites or residues that are conserved among different α2APS from different species. […]

FXIIIa [2] = target: T1, FXIIIa; assay: Dose-dependent crosslinking of α2AP13-24 into fibrin clots; type: biochemical; conditions: purified human fibrinogen
Procedure: (§2) Experiments were performed to determine how long FXIIIa in clots could crosslink various substrates such as human ^125I -α2AP, α2AP13-24 (SEQ ID NO:2), and 5-(biotinamido)pentylamine, into fibrin. In a typical experiment, clots were prepared (50 μl final volume) in duplicate by combining fibrinogen (2 mg/ml final), CaCl2 (2 mM final), buffer (Tris-buffered saline pH 7.4) and thrombin (1 U/ml) and incubating at 37° C. Synchronous with the addition of thrombin, or up to 240 minutes afterwards, the FXIIIa substrates 5-(biotinamido)pentylamine (0.5 mM final), ^125I -α2AP (70 μg/ml final), and α2AP13-24 (0 to 1 mM final) were mixed and added to the clot. […] Crosslinked ^125I-α2AP was detected and quantitated by phosphorimaging. Samples containing crosslinked α2AP13-24 and pentylamine substrates were electroblotted to PVDF membranes and detected by ^125I-streptavidin followed by phosphorimaging or by streptavidin-peroxidase followed by the developing agents 5-bromo-4-chloro-3-indolyl phosphate-nitro blue tetrazolium using methods known in the art. In experiments examining the effect of specific amino acid residues on the crosslinking of the α2AP13-24 peptide (SEQ ID NO:2) to fibrin, crosslinking was detected by immunoblotting with an anti-peptide antibody directed against this epitope followed by ^125I-protein A and phosphorimaging. […]

[3] = Activated partial thromboplastin time in heparinized ferrets; type: in vivo, ferret; conditions: heparin bolus 100 units/kg, throughout the experiment
Procedure: All animals received weight-adjusted heparin at 100 units/kg (bolus), a dose sufficient to keep the activated partial thromboplastin time (aPTT) above 150 seconds throughout the procedure. TPA was given as a continuous infusion over 2 hours (1 mg/kg in 5 ml of normal saline). […] The thorax was dissected and all intrathoracic structures were removed for gamma counting to detect residual thrombi. The percentage of clot lysis was determined for each ferret by dividing the total residual radioactivity in the thorax by that in the initial thrombi. A total of 28 animals was studied; three were excluded because of anesthetic-related death, improper TPA infusion, and failed embolism.

FXIIIa [4] = target: T1, FXIIIa; assay: Variant peptides as inhibitors of the crosslinking of α2AP13-24 into fibrin; type: biochemical; conditions: peptides used as inhibitors
Procedure: as §2

FXIIIa [5] = target: T1, FXIIIa; assay: FXIIIa catalytic half-life: crosslinking of substrates into fibrin clots of various ages; type: biochemical
Procedure: as §1, with “In some experiments, clots were formed by mixing 25 μl pooled human fresh frozen plasma with 25 μl 30 mM CaCl2 instead of using human fibrinogen.” left out

pulmonary emboli = assay: Lysis of radiolabeled pulmonary emboli in ferrets; type: in vivo, ferret
Description: Pulmonary embolisms were induced in ferrets using standard methods, e.g., that described in Butte et al., 1997, Circulation. 95:1886-1891). Male ferrets (weighing approximately 1 kg) were anesthetized with ketamine and acepromazine. After full anesthesia had been obtained, the jugular vein and carotid artery were exposed by an anterior midline incision and cannulated with 20G catheters. Pooled, citrated human plasma was mixed with ^125I-fibrinogen to achieve a specific activity of approximately 1,000,000 cpm/ml. Individual clots were formed by mixing ^125I-fibrinogen-labeled plasma (45 μl) with 2.5 μl of bovine thrombin (100 units/ml) and 2.5 μl of calcium chloride (0.4 M). […] The radioactive content of the clots was measured in a gamma counter immediately before injection. […] Successful embolization was evinced by the accumulation of radioactivity in the thorax.
All animals received weight-adjusted heparin at 100 units/kg (bolus), a dose sufficient to keep the activated partial thromboplastin time (aPTT) above 150 seconds throughout the procedure. […] The percentage of clot lysis was determined for each ferret by dividing the total residual radioactivity in the thorax by that in the initial thrombi. […]

fibrinogen = assay: Residual fibrinogen level by sodium sulfite method; type: in vivo, ferret; conditions: ferrets, before and after treatment
Procedure: FIG. 2 is a bar graph showing the effects of factor XIIIa activity and TPA on residual fibrinogen levels. Fibrinogen levels were measured in 25 ferrets by sodium sulfite precipitation and expressed as a percentage of the fibrinogen level prior to the experiments (“before study” level was defined as 100%). The percent residual fibrinogen level (mean±SD) is shown for each group of 5 ferrets at the end of the experiment. The following conditions were evaluated: Control, normal factor XIIIa activity, no TPA; F13-I, factor XIIIa inhibited, no TPA; TPA, TPA with normal factor XIIIa activity; TPA+F13-I, TPA with inhibited factor XIIIa activity; TPA+α2AP-I, TPA with inhibited α2 antiplasmin-fibrin crosslinking.
Blood samples were collected on K3EDTA (0.15% solution, final concentration) with aprotinin (50 kallikrein units/ml). Platelet-poor plasma was obtained by centrifugation of whole blood and assayed for fibrinogen by a standard sodium sulfite method such as that described by Rampling et al. 1976, Clin Chim Acta. 67:43-52.

Molecule: MEPLGWQLTSGPNQEAVSPLTLLK (listed as Homo sapiens) [Q16A, α2AP1-24 variant peptide]
- crosslinking of peptide to fibrin (FXIIIa [1]): crosslinked into fibrin at rates comparable to that of the wild type

Molecule: hirudin [reference compound]
- effect on α2AP13-24 peptide-fibrin crosslinking (FXIIIa [2]): blocked α2AP13-24 peptide-fibrin crosslinking

Molecule: MEPLGWQLTSGPNQEQVSPLTNLK (listed as Homo sapiens) [L22N, α2AP1-24 variant peptide]
- crosslinking of peptide to fibrin (FXIIIa [1]): crosslinked into fibrin at rates comparable to that of the wild type

Molecule: heparin
- activated partial thromboplastin time (aPTT) [3]: above 150 seconds

- crosslinking of peptide to fibrin (FXIIIa [1]): not efficiently crosslinked to fibrin
Molecule: Q14A: α2AP1-24 variant peptide containing mutation Q14A (MEPLGWQLTSGPNAEQVSPLTLLK; listed as Homo sapiens)
- competition for crosslinking of α2AP13-24 into fibrin (FXIIIa [4]): all peptides but Q14A and V17N competed for crosslinking

- residual FXIIIa crosslinking of substrate (FXIIIa [5]; substrate added to 2 or 4 hour old clots): little residual FXIIIa crosslinking
Molecule: NCCCCCNC(=O)CCCC[C@@H]1SC[C@@H]2NC(=O)N[C@@H]21 [pentylamine-biotin, 5-(biotinamido)pentylamine]

Molecule: O[C@H](CS)[C@H](O)CS (racemic) [DTT, dithiothreitol]
- effect of reducing agent on crosslinking in old clots (FXIIIa [5]; added to reaction mixtures, 2 or 4 hour old clots): restored the crosslinking of pentylamine or α2AP13-24 to fibrin clots

Molecule: MEPLGWQLTSGPNQAQVSPLTLLK (MEPLGWQLTSGPNQAQVSPLTLLK; listed as Homo sapiens) [E15A, α2AP1-24 variant peptide]
- crosslinking of peptide to fibrin (FXIIIa [1]): crosslinked into fibrin at rates comparable to that of the wild type

- crosslinking of peptide to fibrin (FXIIIa [1]): not efficiently crosslinked to fibrin
Molecule: V17N: α2AP1-24 variant peptide containing mutation V17N (MEPLGWQLTSGPNQEQNSPLTLLK; listed as Homo sapiens)
- competition for crosslinking of α2AP13-24 into fibrin (FXIIIa [4]): all peptides but Q14A and V17N competed for crosslinking

Molecule: tissue plasminogen activator [TPA]
- lysis of pulmonary emboli compared with other group (pulmonary emboli; FIGS. 1A and 1B group comparisons): significantly increased lysis
- lysis of pulmonary emboli (mean±SD) (pulmonary emboli; TPA 1 mg/kg infused over 2 hours, heparin 100 units/kg, 4 hours after embolization): 32.3±7.7% and 32.2±7.7%
- residual fibrinogen level at end of study, percentage of initial value (fibrinogen): nonspecific degradation of fibrinogen did not occur
